The text below walks through data of publication PMC3681763 (2013).

Sequences and labels used below:
B3: (C2)RAGE-GFP (domain or fragment)
chain: EPVPLEEVQLVVEPEGGAVAPGGTVTLTCEVPAQPSPQIHWMKDGVPLPLPPSPVLILPEIGPQDQGTYSCVATHSSHGPQESRAVSISIIEPGEEGPTAGSVGGS

Common to all, as to assay: ELISA
Background: In an ELISA, binding on a coated surface is turned into a signal by an enzyme label.

The target in the assay “(C2)RAGE-GFP” is B3.
The target of the next assay is Apt#31.
Assay [1] deals with Peptide aptamer PA #44 (anti-V domain), purified, in the D26A, K57E Thioredoxin scaffold (E. coli, UniProt P0AA25 = thioredoxin).
Assay [2] concerns the target Peptide aptamer PA #27 (anti-C1 domain), purified, in the D26A, K57E Thioredoxin scaffold (E. coli, UniProt P0AA25 = thioredoxin).
The target of a further assay is Apt#48.
Assay [3] has as its target Peptide aptamer PA #71 (anti-C2 domain), purified, in the D26A, K57E Thioredoxin scaffold (E. coli, UniProt P0AA25 = thioredoxin).

B1: Peptide aptamer PA #103 (anti-C2 domain), purified, in the D26A, K57E Thioredoxin scaffold (designed binder)
chain: SDKIIHLTDDSFDTDVLKADGAILVAFWAEWIQLRVRMKLVKMIAPILDEIADEYQGKLTVAELNIDQNPGTAPKYGIRGIPTLLLFKNGEVAATKVGALSKGQLKEFLDANLA
What is called Kd is the equilibrium constant for the complex coming apart. The low end stands for tighter binding, the high end for weaker binding. In the assay with (C2)RAGE-GFP, B1 yielded a Kd of 1340 nM. This lies in the single-digit micromolar range.

B2: (VC1)RAGE-GFP (domain or fragment)
chain: AQNITARIGEPLVLKCKGAPKKPPQRLEWKLNTGRTEAWKVLSPQGGGPWDSVARVLPNGSLFLPAVGIQDEGIFRCQAMNRNGKETKSNYRVRVYQIPGKPEIVDSASELTAGVPNKVGTCVSEGSYPAGTLSWHLDGKPLVPNEKGVSVKEQTRRHPETGLFTLQSELMVTPARGGDPRPTFSCSFSPGLPRHRALRTAPIQPRVWEPVPLEEVQLVVEPEG
Turning to B2, the Kd with Apt#31 came out at 42 nM; in assay [1] it was 164 nM; in assay [2] it was 32 nM; with Apt#48 it was 152 nM.

Take B3: the Kd in assay [3] was found to be 14500 nM.
